Our source for the relative binding activity values is patent US20200199241A1 (Chugai, published 2020).

Changes are numbered by the printed parent chain.

The labels stand for the following.
B1: IL6R-BP086/IL6R-L (antibody, human IgG1)
heavy: QVQLQESGPGLVKPSETLSLTCAVSGHSISHDHAWSWVRQPPGEGLEWIGFISYSGITNYNPSLQGRVTISRDNSKNTLYLQMNSLRAEDTAVYYCARSLARTTAMDYWGEGTLVTVSSASTKGPSVFPLAPSSKSTSGGTAALGCLVKDYFPEPVTVSWNSGALTSGVHTFPAVLQSSGLYSLSSVVTVPSSSLGTQTYICNVNHKPSNTKVDKKVEPKSCDKTHTCPPCPAPELLGGDSVFLFPPKPKDTLMISRTPEVTCVVVDVSHEDPEVKFNWYVDGVEVHNAKTKPREEQYNSTYRVVSVLTVLHQDWLNGKEYKCKVSNAALPKPIEKTISKAKGQPREPQVYTLPPSRDELTKNQVSLTCLVKGFYPSDIAVEWESNGQPENNYKTTPPVLDSDGSFFLYSKLTVDKSRWQQGNVFSCSVMHEALHNHYTQESLSLSP
light: DIQMTQSPSSLSASVGDRVTITCRASQDISSYLNWYQQKPGKAPKLLIYYTSRLHSGVPSRFSGSGSGTDFTFTISSLQPEDIATYYCQQGNTLPYTFGQGTKVEIK
notes: IgG1; Fc variant of IL6R-B3; copies: 2 + 2
B2: IL6R-BP183/IL6R-L (antibody, human IgG1)
heavy: B1 heavy with E235D, L236Y, P273G
light: B1 light
notes: as for B1
B3: IL6R-BP144/IL6R-L (antibody, human IgG1)
heavy: B1 heavy with G239D, K332A
light: B1 light
notes: as for B1
B4: IL6R-BP186/IL6R-L (antibody, human IgG1)
heavy: B1 heavy with E235D, L236Y, G239D, P273G, Y298D
light: B1 light
notes: as for B1
B5: IL6R-BP133/IL6R-L (antibody, human IgG1)
heavy: B1 heavy with E235D, L236Y, A328K
light: B1 light
notes: as for B1
B6: IL6R-BP185/IL6R-L (antibody, human IgG1)
heavy: B1 heavy with E235D, L236Y, G239D, P273G
light: B1 light
notes: as for B1
B7: IL6R-BP177/IL6R-L (antibody, human IgG1)
heavy: B1 heavy with E235D, L236Y, G239D, P273G, A328D
light: B1 light
notes: as for B1
B8: IL6R-BP187/IL6R-L (antibody, human IgG1)
heavy: B1 heavy with L236Y, P273G
light: B1 light
notes: as for B1
B9: IL6R-BP129/IL6R-L (antibody, human IgG1)
heavy: B1 heavy with E235D, Y298D, A328K
light: B1 light
notes: as for B1
B10: IL6R-BP150/IL6R-L (antibody, human IgG1)
heavy: B1 heavy with L236Y, G239D, K332R
light: B1 light
notes: as for B1
B11: IL6R-BP089/IL6R-L (antibody, human IgG1)
heavy: B1 heavy with L236Y
light: B1 light
notes: as for B1
B12: IL6R-BP148/IL6R-L (antibody, human IgG1)
heavy: B1 heavy with E235D, L236Y, G239D
light: B1 light
notes: as for B1
B13: IL6R-BP184/IL6R-L (antibody, human IgG1)
heavy: B1 heavy with E235D, P273G, A328K
light: B1 light
notes: as for B1
B14: IL6R-BP189/IL6R-L (antibody, human IgG1)
heavy: B1 heavy with G239D, H270D, P273G
light: B1 light
notes: as for B1
B15: IL6R-BP132/IL6R-L (antibody, human IgG1)
heavy: B1 heavy with E235D
light: B1 light
notes: as for B1
B16: IL6R-BP179/IL6R-L (antibody, human IgG1)
heavy: B1 heavy with G239D, P273G
light: B1 light
notes: as for B1
B17: IL6R-BP180/IL6R-L (antibody, human IgG1)
heavy: B1 heavy with G239D, P273G, A328K
light: B1 light
notes: as for B1
B18: IL6R-BP087/IL6R-L (antibody, human IgG1)
heavy: B1 heavy with L236Y, A328K
light: B1 light
notes: as for B1
B19: IL6R-BP145/IL6R-L (antibody, human IgG1)
heavy: B1 heavy with L236Y, G239D, A328K, K332A
light: B1 light
notes: as for B1
B20: IL6R-BP088/IL6R-L (antibody, human IgG1)
heavy: B1 heavy with G239D
light: B1 light
notes: as for B1
B21: IL6R-BP149/IL6R-L (antibody, human IgG1)
heavy: B1 heavy with E235D, L236Y, G239D, Y298D
light: B1 light
notes: as for B1
B22: IL6R-BP143/IL6R-L (antibody, human IgG1)
heavy: B1 heavy with L236Y, K332A
light: B1 light
notes: as for B1

T1 sequence (P12314 16-292 limits assumed): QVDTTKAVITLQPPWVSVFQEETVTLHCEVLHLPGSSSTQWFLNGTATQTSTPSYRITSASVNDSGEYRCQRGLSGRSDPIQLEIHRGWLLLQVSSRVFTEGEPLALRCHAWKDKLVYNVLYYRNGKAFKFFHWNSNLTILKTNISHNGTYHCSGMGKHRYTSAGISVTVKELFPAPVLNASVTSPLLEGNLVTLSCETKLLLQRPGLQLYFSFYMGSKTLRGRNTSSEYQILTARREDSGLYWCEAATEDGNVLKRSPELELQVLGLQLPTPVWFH

The first assay addresses T1, FcγRIa (human, UniProt P12314 16-292, limits assumed).
T1 construct: also called FcgRIa; CD64
Kind of assay: SPR (Biacore), bound amount, IL6R-BF648/IL6R-L = 100.
For B1, the relative binding activity is 72 % of control.
On the same count and under the same terms, next, B2: 83 % of control; B3: 64 % of control.
For the molecule B4, the relative binding activity is 43 % of control.
Still for that read-out and setting: in the case of B5 it was 41 % of control.
On the same count and under the same terms, next, B6: 47 % of control; B7: 57 % of control.
On the same count and under the same terms, in the case of B8 it was 68 % of control; in that of B9, 68 % of control; in that of B10, 30 % of control.
With B11, the relative binding activity was 43 % of control.
On the same count and under the same terms, next, B12: 33 % of control; B13: 96 % of control; B14: 56 % of control.
With B15, the relative binding activity was 91 % of control.
Turning to B16, the relative binding activity was 39 % of control.
The same measure, in the same setting: next, B17: 29 % of control; B18: 33 % of control; B19: 41 % of control.
For B20, the relative binding activity was 25 % of control.
For the molecule B21, the relative binding activity is 29 % of control.
On the same count and under the same terms, in the case of B22 it was 86 % of control.

A further assay concerns the target T2, FcγRIIa type H (human, UniProt P12318 36-217).
T2 construct: also called FcγRIIaH; FcγRIIH
T2 sequence: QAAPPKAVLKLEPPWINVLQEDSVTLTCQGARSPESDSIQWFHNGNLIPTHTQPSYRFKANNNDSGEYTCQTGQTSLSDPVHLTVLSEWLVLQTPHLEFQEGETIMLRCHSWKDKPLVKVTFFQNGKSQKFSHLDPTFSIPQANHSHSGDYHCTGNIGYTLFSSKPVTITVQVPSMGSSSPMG
Described as above.
With B1, the relative binding activity was 116 % of control.
In the case of B2, the relative binding activity is 191 % of control.
Take B3: the relative binding activity was 108 % of control.
Turning to B4, the relative binding activity was 368 % of control.
Still for that read-out and setting: in the case of B5 it was 151 % of control; in that of B6, 446 % of control; in that of B7, 409 % of control.
On to B8, for which the relative binding activity was 205 % of control.
With B9, the relative binding activity was 98 % of control.
As to B10, the relative binding activity is 770 % of control.
Still for that read-out and setting: next, B11: 186 % of control.
The same measure, in the same setting: in the case of B12 it was 462 % of control; in that of B13, 131 % of control; in that of B14, 183 % of control.
Same read-out and setting: in the case of B15 it was 130 % of control; in that of B16, 226 % of control.
For B17, the relative binding activity was 203 % of control.
The same measure, in the same setting: in the case of B18 it was 179 % of control; in that of B19, 224 % of control.
Still for that read-out and setting: next, B20: 166 % of control; B21: 401 % of control; B22: 143 % of control.

Another assay deals with T3, FcγRIIb (human, UniProt P31994 43-217, limits assumed).
T3 construct: also called FcgRIIb; FcγIIB
T3 sequence: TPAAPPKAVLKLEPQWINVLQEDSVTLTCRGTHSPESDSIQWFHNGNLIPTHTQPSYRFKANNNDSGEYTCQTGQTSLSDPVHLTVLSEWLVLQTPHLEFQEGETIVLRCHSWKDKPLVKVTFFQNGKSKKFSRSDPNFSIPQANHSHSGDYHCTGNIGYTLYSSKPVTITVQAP
The description is as above.
On to B1, for which the relative binding activity was 137 % of control.
Same read-out and setting: next, B2: 164 % of control; B3: 121 % of control.
Still for that read-out and setting: next, B4: 175 % of control; B5: 137 % of control.
In the case of B6, the relative binding activity was 179 % of control.
On the same count and under the same terms, next, B7: 177 % of control; B8: 157 % of control; B9: 138 % of control.
On the same count and under the same terms, in the case of B10 it was 183 % of control; in that of B11, 147 % of control.
On the same count and under the same terms, in the case of B12 it was 176 % of control; in that of B13, 171 % of control.
For the molecule B14, the relative binding activity was 177 % of control.
On the same count and under the same terms, in the case of B15 it was 150 % of control; in that of B16, 177 % of control; in that of B17, 179 % of control.
On the same count and under the same terms, next, B18: 137 % of control; B19: 152 % of control; B20: 161 % of control.
Same read-out and setting: in the case of B21 it was 173 % of control; in that of B22, 133 % of control.

The target in another assay is T4, FcγRIIIa type V (human, UniProt P08637 17-208, limits assumed).
T4 construct: also called FcγRIIIaV; FcgRIIIaV
T4 sequence (P08637 other isoform, or with tags, fused parts or gaps limits assumed): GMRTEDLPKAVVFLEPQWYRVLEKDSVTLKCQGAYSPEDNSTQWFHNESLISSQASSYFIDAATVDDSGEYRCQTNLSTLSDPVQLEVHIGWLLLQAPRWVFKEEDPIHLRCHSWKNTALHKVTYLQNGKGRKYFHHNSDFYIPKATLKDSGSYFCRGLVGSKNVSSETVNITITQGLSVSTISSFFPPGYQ
Described as above.
On to B1, for which the relative binding activity is 123 % of control.
Same read-out and setting: in the case of B2 it was 113 % of control.
On the same count and under the same terms, in the case of B3 it was 128 % of control; in that of B4, 143 % of control.
B5: the relative binding activity was 114 % of control.
Same read-out and setting: in the case of B6 it was 191 % of control; in that of B7, 186 % of control.
On the same count and under the same terms, in the case of B8 it was 124 % of control; in that of B9, 95 % of control; in that of B10, 204 % of control.
Take B11: the relative binding activity was 136 % of control.
Still for that read-out and setting: next, B12: 227 % of control.
The same measure, in the same setting: next, B13: 106 % of control.
Still for that read-out and setting: in the case of B14 it was 141 % of control; in that of B15, 120 % of control.
For the molecule B16, the relative binding activity is 125 % of control.
Same read-out and setting: in the case of B17 it was 100 % of control; in that of B18, 158 % of control; in that of B19, 153 % of control.
On the same count and under the same terms, in the case of B20 it was 122 % of control.
On the same count and under the same terms, next, B21: 186 % of control; B22: 114 % of control.
